Results from patent US20070254316A1 (Johns Hopkins, published 2007).
Ends that are not written are not given here.

Columns and labels:
[1] = target: T1, xPSM (extracellular portion of human PSMA, Tag-xPSM digested with enterokinase, no affinity tags) (human, UniProt Q04609 44-750); experiment: phage ELISA on xPSM
T1 construct: extracellular domain; also called purified xPSM; soluble xPSM protein

PSMA on LNCaP cells = target: T2, PSMA on LNCaP cells (human, UniProt Q04609 1-750); experiment: phage binding to LNCaP cells, 10^8 PFU, BRASIL partitioning and titer
T2 construct: whole, on cells; Target is whole LNCaP cells; also called PSMA expressing LNCaP cells
T2 sequence (Q04609 whole entry): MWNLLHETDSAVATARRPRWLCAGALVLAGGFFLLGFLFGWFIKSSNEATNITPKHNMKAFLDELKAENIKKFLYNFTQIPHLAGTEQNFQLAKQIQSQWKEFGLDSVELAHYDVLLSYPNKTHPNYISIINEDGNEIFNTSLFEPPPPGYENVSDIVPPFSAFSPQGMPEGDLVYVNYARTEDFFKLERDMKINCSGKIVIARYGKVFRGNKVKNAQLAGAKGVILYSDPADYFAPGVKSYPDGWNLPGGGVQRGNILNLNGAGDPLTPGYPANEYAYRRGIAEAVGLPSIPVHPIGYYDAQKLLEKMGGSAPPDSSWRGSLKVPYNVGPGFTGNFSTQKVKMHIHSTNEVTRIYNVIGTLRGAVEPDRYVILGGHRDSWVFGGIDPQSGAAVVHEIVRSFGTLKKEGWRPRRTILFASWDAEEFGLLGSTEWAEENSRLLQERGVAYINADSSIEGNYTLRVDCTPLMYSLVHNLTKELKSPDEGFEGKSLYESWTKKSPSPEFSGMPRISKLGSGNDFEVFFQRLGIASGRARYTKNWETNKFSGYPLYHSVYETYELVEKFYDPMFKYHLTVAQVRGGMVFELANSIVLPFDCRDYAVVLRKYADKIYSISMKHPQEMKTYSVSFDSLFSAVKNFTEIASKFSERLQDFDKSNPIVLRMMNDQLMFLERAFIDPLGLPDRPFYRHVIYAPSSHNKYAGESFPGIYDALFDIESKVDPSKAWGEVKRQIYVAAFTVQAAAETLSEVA
Experimental: FIG. 6 depicts the binding of individual phage clones to PSMA expressing LNCaP cells. 1.3×10⁵ harvested LNCaP cells were incubated with 10⁸ PFU of each individual phage for 20 minutes. Cell-bound phage were isolated by BRASIL partitioning and titered. Phage clones contained peptide sequences as follows: R5-C6: SEQ ID NO:2; R4-C9: SEQ ID NO:5; R5-XC1: SEQ ID NO:1; R3-A4: SEQ ID NO:95.
(§1) Cell monolayers were washed several times in PBS, and finally incubated five minutes in PBS at 37° C. Cells were knocked free, pelleted, and suspended in RPMI 1640+1% FBS at a concentration of 10⁶ cells per milliliter. 10⁸ PFU from each clone were incubated with 100 μl of cells at 37° C. for 20 minutes while rotating. For competitive inhibition, purified xPSM or BSA were added to the cells along with phage, and a larger concentration of 10¹⁰ PFU was applied. The cells were then centrifuged through 200 μl of 9:1 dibutyl phthalate:cyclohexane, previously described as BRASIL portioning (Giordano, R. J. et al. (2001) Nat. Med. 7:1249-1253, incorporated herein by reference). The tube was then snap frozen in liquid nitrogen to isolate the cell pellet. The cell pellets were then resuspended in 200 μl of log phage ER2738 cells and phage allowed to infect 1 hour at room temperature. A small aliquot was taken to determine the number of phage bound by dilution titer.

[2] = target: T3, Tag-xPSM fusion target protein (human, UniProt Q04609 44-750); experiment: phage ELISA; R3-A4 stands only in FIG. 5, where Tag-xPSM was immobilised
T3 construct: extracellular domain; they are put first here only as a guess from the type II topology; Made in Sf-9 cells; also called PSMA fusion protein
T3 sequence (Q04609 44-750): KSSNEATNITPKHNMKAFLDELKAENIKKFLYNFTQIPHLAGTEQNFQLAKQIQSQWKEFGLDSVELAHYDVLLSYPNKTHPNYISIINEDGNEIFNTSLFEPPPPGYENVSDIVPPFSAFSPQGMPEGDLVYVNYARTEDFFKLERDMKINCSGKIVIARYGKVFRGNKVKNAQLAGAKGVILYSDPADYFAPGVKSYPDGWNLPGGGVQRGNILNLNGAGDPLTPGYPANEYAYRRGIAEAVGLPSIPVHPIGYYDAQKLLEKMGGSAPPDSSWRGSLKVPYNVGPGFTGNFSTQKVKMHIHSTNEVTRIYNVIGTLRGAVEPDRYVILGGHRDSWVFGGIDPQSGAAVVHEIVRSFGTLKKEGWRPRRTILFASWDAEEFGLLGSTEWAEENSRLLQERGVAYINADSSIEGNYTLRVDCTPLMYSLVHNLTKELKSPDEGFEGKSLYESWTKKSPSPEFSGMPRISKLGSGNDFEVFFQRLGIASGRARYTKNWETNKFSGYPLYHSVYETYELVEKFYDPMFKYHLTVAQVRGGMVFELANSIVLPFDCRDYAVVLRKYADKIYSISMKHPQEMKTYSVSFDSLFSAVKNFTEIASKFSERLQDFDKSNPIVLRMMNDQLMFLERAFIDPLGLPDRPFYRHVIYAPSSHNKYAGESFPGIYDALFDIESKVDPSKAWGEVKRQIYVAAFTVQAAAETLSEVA
Description: (§2) FIG. 5 depicts the binding of selected phage clones to purified extracellular PSMA. Tag-xPSM was immobilized on microtiter plates and targeted for binding with 10¹⁰ PFU of each individual phage. Bound phages were quantified by ELISA absorbance at 410 nm. R4-C9, R5-XC1, and R3-A4 bound with the following significance compared to insertless phage: p-value=0.005, 0.009, and 0.0001 respectively). Phage clones contained peptide sequences as follows: R5-C6: SEQ ID NO:2; R4-C9: SEQ ID NO:5; R5-XC1: SEQ ID NO:1; R3-A4: SEQ ID NO:95.
(§3) Target proteins were immobilized on 96 well tissue culture plates by incubation for 1-2 hours at room temperature or overnight at four degrees Celsius. Both phage and protein coated plate were blocked for 30 minutes with RPMI 1640+1% Bovine Serum Albumin (BSA) at room temperature. Phage were incubated with target in RPMI 1640+1% BSA for 1 hour at room temperature, wells were washed five times in PBS+0.05% Tween-20, and wells were incubated with 1:5000 HRP/anti-M13 monoclonal antibody (in PBS) for 1 hour. Wells were again washed five times in PBS+0.05% Tween-20, and signal detected by incubation in 1×ABTS Stock Solution (100 mg ABTS in 450 ml of 0.05 M Citric Acid, pH 4.0) and absorbance reading at 410 nm. […] Significance was calculated by two-tailed, two-sample equal variance test.

[3] = target: T3, Tag-xPSM fusion target protein; experiment: phage ELISA, Tag-xPSM immobilised on microtiter plates, 10^10 PFU, absorbance at 410 nm
Description: as §2, §3

[4] = target: T1, xPSM (extracellular portion of human …); experiment: competition: 380 nM soluble PSMA (xPSM) against LNCaP cells for R5-XC1 phage, 500 nM BSA as control
Experimental: FIG. 7 depicts the specific blocking of LNCaP phage binding by soluble xPSM protein. 10¹⁰ R5-XC1 phage or the round one phage pool were allowed to bind LNCaP cells in the presence of 380 nM PSMA or 500 nM BSA.
as §1

T1 sequence (Q04609 44-750): as above

B1: SEQ ID NO 107 phage (M13 phage displaying CTPQSSDRC) (peptide)
chain: CTPQSSDRC
modifications: not fully specified (bridges); cysteine pairing not given here; also: displayed on M13 phage pIII coat protein
notes: Tested as whole phage; not shown: pIII coat protein of M13 filamentous bacteriophage (New England Biolabs CX7C library); junction between peptide and pIII
binding result [1]: binds

B2: SEQ ID NO 106 phage (M13 phage displaying CQVRHSAQC) (peptide)
chain: CQVRHSAQC
modifications: not fully specified (bridges); cysteine pairing not given here; also: displayed on M13 phage pIII coat protein
notes: as for B1
binding result [1]: binds

B3: R3-A4 phage (M13 phage displaying CFPQSSARC) (peptide)
chain: CFPQSSARC
modifications: not fully specified (bridges); cysteine pairing not given here; also: displayed on M13 phage pIII coat protein
notes: Disulfide-constrained heptapeptide flanked by cysteines, tested as whole phage; not shown: pIII coat protein of M13 filamentous bacteriophage (New England Biolabs CX7C library); junction between peptide and pIII
binding result (PSMA on LNCaP cells): binds | binding result [2]: binds

B4: R5-XC1 phage (M13 phage displaying CQKHHNYLC) (peptide)
chain: CQKHHNYLC
modifications: not fully specified (bridges); cysteine pairing not given here; also: displayed on M13 phage pIII coat protein
notes: as for B3
binding result [3]: binds | binding result [4]: binds | binding result (PSMA on LNCaP cells): binds

B5: R5-C6 phage (M13 phage displaying CTITSKRTC) (peptide)
chain: CTITSKRTC
modifications: not fully specified (bridges); cysteine pairing not given here; also: displayed on M13 phage pIII coat protein
notes: as for B3
binding result [1]: binds | binding result (PSMA on LNCaP cells): binds

B6: SEQ ID NO 9 phage (M13 phage displaying CPSVNTKQC) (peptide)
chain: CPSVNTKQC
modifications: not fully specified (bridges); cysteine pairing not given here; also: displayed on M13 phage pIII coat protein
notes: Tested as whole phage; also called R5-C11; not shown: pIII coat protein of M13 filamentous bacteriophage (New England Biolabs CX7C library); junction between peptide and pIII
binding result [1]: binds

B7: SEQ ID NO 28 phage (M13 phage displaying CLSSNSSLC) (peptide)
chain: CLSSNSSLC
modifications: not fully specified (bridges); cysteine pairing not given here; also: displayed on M13 phage pIII coat protein
notes: Tested as whole phage; also called R3-C1; not shown: pIII coat protein of M13 filamentous bacteriophage (New England Biolabs CX7C library); junction between peptide and pIII
binding result [1]: binds
